Source: the Human Domainome abundance scans (Beltran et al. 2025)
± gives the uncertainty stated by the source.

B1: Homeobox protein cut-like 2, residues 895 to 963; numbered along this chain, O14529 (parent)
chain: EVDTLELTRQVKEKLAKNGICQRIFGEKVLGLSQGSVSDMLSRPKPWSKLTQKGREPFIRMQLWLSDQL

Variants of: B1
Assay: abundance fitness (aPCA) (normalised: wild type 0, dead -1); higher = more abundant; growth selection in yeast, the domain comes from the species named
Details: Homo sapiens
Work on S33V yielded an abundance fitness of -0.061 ± 0.034. Work on S33C yielded an abundance fitness of -0.035 ± 0.037. In the case of S33K, the abundance fitness is reported as 0.023 ± 0.067. L50G gave an abundance fitness of -0.652 ± 0.085. With L50W the abundance fitness was -0.12 ± 0.081. L50Y showed an abundance fitness of -0.191 ± 0.066. R43P showed an abundance fitness of -0.357 ± 0.027. In the case of R43I, the abundance fitness is reported as -0.329 ± 0.066. With R43W the abundance fitness was -0.191 ± 0.049. R43A showed an abundance fitness of -0.034 ± 0.029. K17M showed an abundance fitness of -0.09 ± 0.039. G35C gave an abundance fitness of -0.211 ± 0.043. In the case of G35V, the abundance fitness is reported as -0.058 ± 0.033. G35P showed an abundance fitness of -0.077 ± 0.04. In the case of K12M, the abundance fitness is reported as -0.237 ± 0.037. K12H gave an abundance fitness of -0.354 ± 0.11. D39I gave an abundance fitness of -0.26 ± 0.13. With Q52Y the abundance fitness was -0.073 ± 0.15. Variant Q52A has an abundance fitness of 0.042 ± 0.03. For E1Q, the abundance fitness was -0.278 ± 0.12. With K49Y the abundance fitness was -0.301 ± 0.047. Variant K14S has an abundance fitness of -0.154 ± 0.057. With K14R the abundance fitness was -0.062 ± 0.067. V29Y gave an abundance fitness of -0.145 ± 0.052. In the case of V29K, the abundance fitness is reported as -0.129 ± 0.037. In the case of P46R, the abundance fitness is reported as -0.057 ± 0.08. With P46I the abundance fitness was -0.071 ± 0.046. Variant P46M has an abundance fitness of -0.214 ± 0.06. For P46Y, the abundance fitness was -0.078 ± 0.035. In the case of F58L, the abundance fitness is reported as -0.274 ± 0.031. K53T gave an abundance fitness of -0.166 ± 0.036. For K53W, the abundance fitness was -0.298 ± 0.061. Variant K53R has an abundance fitness of -0.09 ± 0.028. In the case of K53I, the abundance fitness is reported as -0.037 ± 0.27. Work on K53A yielded an abundance fitness of -0.014 ± 0.035. Work on T8C yielded an abundance fitness of -0.022 ± 0.035. With T8Q the abundance fitness was -0.333 ± 0.039. Variant T8F has an abundance fitness of -0.143 ± 0.04. For T8D, the abundance fitness was -0.214 ± 0.073. R9G gave an abundance fitness of -0.129 ± 0.026. R9M showed an abundance fitness of 0.006 ± 0.036. In the case of G31D, the abundance fitness is reported as -0.132 ± 0.072. G31M showed an abundance fitness of -0.347 ± 0.068. G31R showed an abundance fitness of -0.107 ± 0.038. Work on G31V yielded an abundance fitness of -0.514 ± 0.052. K28P showed an abundance fitness of -0.6 ± 0.04. Variant K28S has an abundance fitness of -0.116 ± 0.028. Work on K28Q yielded an abundance fitness of 0.012 ± 0.033. For M40F, the abundance fitness was -0.189 ± 0.083. For M40A, the abundance fitness was -0.169 ± 0.046. M40C showed an abundance fitness of -0.045 ± 0.082. V37A gave an abundance fitness of -0.139 ± 0.038. Variant V37D has an abundance fitness of -0.397 ± 0.093. In the case of R55S, the abundance fitness is reported as -0.559 ± 0.053. Variant R55H has an abundance fitness of -0.654 ± 0.078. Work on L30N yielded an abundance fitness of -0.425 ± 0.063. With L30V the abundance fitness was -0.275 ± 0.03. Variant L30F has an abundance fitness of -0.186 ± 0.038. L30C gave an abundance fitness of -0.234 ± 0.043. R23Q gave an abundance fitness of -0.079 ± 0.048. Work on R23D yielded an abundance fitness of -0.042 ± 0.15. Variant I24M has an abundance fitness of -0.023 ± 0.037. Work on I24S yielded an abundance fitness of -0.084 ± 0.036. Work on E13R yielded an abundance fitness of -0.101 ± 0.041. For C21M, the abundance fitness was -0.045 ± 0.039. In the case of C21T, the abundance fitness is reported as 0.093 ± 0.04. For C21D, the abundance fitness was -0.103 ± 0.099. S38H gave an abundance fitness of 0.005 ± 0.03. S38G gave an abundance fitness of -0.097 ± 0.033. S38Q gave an abundance fitness of 0.03 ± 0.025. In the case of V2Y, the abundance fitness is reported as -0.152 ± 0.069. In the case of L63N, the abundance fitness is reported as -0.006 ± 0.07. With L63Y the abundance fitness was -0.115 ± 0.049. Work on L63W yielded an abundance fitness of -0.271 ± 0.087. In the case of L63S, the abundance fitness is reported as 0.069 ± 0.032. L63C gave an abundance fitness of -0.127 ± 0.09. Variant R60G has an abundance fitness of -0.287 ± 0.23. With R60S the abundance fitness was -0.396 ± 0.034. Work on R60I yielded an abundance fitness of -0.653 ± 0.091. N18Q showed an abundance fitness of -0.016 ± 0.034. Variant I20Q has an abundance fitness of -0.202 ± 0.046. With I20R the abundance fitness was -0.409 ± 0.051. For S66P, the abundance fitness was -0.998 ± 0.046. S66Y showed an abundance fitness of -0.001 ± 0.089. Variant S66N has an abundance fitness of 0.189 ± 0.076. With K45P the abundance fitness was -0.073 ± 0.16. E6S gave an abundance fitness of -0.095 ± 0.047. E6T gave an abundance fitness of -0.129 ± 0.08. With E6C the abundance fitness was -0.231 ± 0.042. For V11Q, the abundance fitness was -0.218 ± 0.04. With V11F the abundance fitness was -0.239 ± 0.062. With V11M the abundance fitness was -0.162 ± 0.041. With V11K the abundance fitness was -0.081 ± 0.035. Work on L65P yielded an abundance fitness of -1.03 ± 0.051. Variant L65Q has an abundance fitness of -0.926 ± 0.07. Q62V showed an abundance fitness of -0.367 ± 0.046. Q62S gave an abundance fitness of -0.079 ± 0.035. Variant D3V has an abundance fitness of -0.42 ± 0.029. Variant D3W has an abundance fitness of -0.221 ± 0.035. D3I gave an abundance fitness of -0.541 ± 0.06. Variant E56T has an abundance fitness of -0.22 ± 0.046. For E56A, the abundance fitness was -0.08 ± 0.041. Variant W64N has an abundance fitness of -0.678 ± 0.28. W64A gave an abundance fitness of -1.17 ± 0.089. Work on W64P yielded an abundance fitness of -0.806 ± 0.05. Variant W64S has an abundance fitness of -1.3 ± 0.097. Work on W64K yielded an abundance fitness of -0.899 ± 0.07. S36F showed an abundance fitness of -0.093 ± 0.041. In the case of S36R, the abundance fitness is reported as -0.097 ± 0.056. For S36E, the abundance fitness was 0.152 ± 0.054. Variant S36Y has an abundance fitness of -0.062 ± 0.043. For S36W, the abundance fitness was -0.057 ± 0.064. T51Y showed an abundance fitness of -0.011 ± 0.056. For T51V, the abundance fitness was -0.115 ± 0.048. Work on T51W yielded an abundance fitness of -0.033 ± 0.12. In the case of T51Q, the abundance fitness is reported as -0.247 ± 0.04. P44M showed an abundance fitness of -0.196 ± 0.05. Work on T4H yielded an abundance fitness of -0.186 ± 0.051. With L7I the abundance fitness was -0.058 ± 0.067. With L7P the abundance fitness was -0.103 ± 0.036. With L32H the abundance fitness was -0.231 ± 0.063. L15N gave an abundance fitness of -0.184 ± 0.059. Work on L15I yielded an abundance fitness of -0.084 ± 0.047. For L15R, the abundance fitness was -0.069 ± 0.045. Variant L15D has an abundance fitness of -0.211 ± 0.048. Variant L15G has an abundance fitness of -0.113 ± 0.027. With A16C the abundance fitness was -0.106 ± 0.077. Variant A16F has an abundance fitness of -0.198 ± 0.058. In the case of A16I, the abundance fitness is reported as -0.313 ± 0.079. Work on A16Y yielded an abundance fitness of -0.234 ± 0.1. For L41N, the abundance fitness was -0.481 ± 0.067. L41R showed an abundance fitness of -0.226 ± 0.051. For L41E, the abundance fitness was -0.41 ± 0.11. Work on L41W yielded an abundance fitness of -0.25 ± 0.055. For G19V, the abundance fitness was -0.417 ± 0.057. Work on Q68N yielded an abundance fitness of -0.068 ± 0.05. For D67R, the abundance fitness was -0.008 ± 0.083. Work on S42A yielded an abundance fitness of -0.014 ± 0.11. S42F showed an abundance fitness of -0.167 ± 0.031. S42D gave an abundance fitness of 0.039 ± 0.07. S42V gave an abundance fitness of -0.146 ± 0.036. In the case of S42M, the abundance fitness is reported as 0.012 ± 0.037. For F25P, the abundance fitness was -1.05 ± 0.41. In the case of F25V, the abundance fitness is reported as -0.646 ± 0.037. F25A showed an abundance fitness of -0.827 ± 0.079. Variant S48N has an abundance fitness of -0.055 ± 0.051. In the case of S48Y, the abundance fitness is reported as -0.084 ± 0.062. S48P gave an abundance fitness of -0.229 ± 0.034. In the case of Q22S, the abundance fitness is reported as -0.089 ± 0.032. In the case of Q22L, the abundance fitness is reported as -0.003 ± 0.032. Q22N gave an abundance fitness of -0.461 ± 0.14. W47N gave an abundance fitness of -0.895 ± 0.14. In the case of W47K, the abundance fitness is reported as -1.28 ± 0.16. In the case of L5A, the abundance fitness is reported as 0.028 ± 0.028. L5F showed an abundance fitness of 0.025 ± 0.042. L5M gave an abundance fitness of 0.122 ± 0.029. E27P gave an abundance fitness of -0.106 ± 0.041. I59A showed an abundance fitness of -0.079 ± 0.039. I59S gave an abundance fitness of -0.118 ± 0.034. I59H showed an abundance fitness of 0.051 ± 0.047. In the case of G26A, the abundance fitness is reported as 0.082 ± 0.065. With G26F the abundance fitness was -0.02 ± 0.032. For Q34N, the abundance fitness was 0.046 ± 0.038. Work on Q34I yielded an abundance fitness of 0.005 ± 0.037. Work on Q10D yielded an abundance fitness of 0.005 ± 0.11. With L69S the abundance fitness was -0.052 ± 0.043. In the case of L69F, the abundance fitness is reported as -0.083 ± 0.054.
